Test [1] concerns the target endogenous porcine aminopeptidase N on ST cells and IPI-21 cells (porcine (endogenous in ST and IPI-21 cells)) (UniProt P15145). As to the kind of experiment: flow cytometry on cells. (In general: In flow cytometry, cells or beads pass a laser one at a time.)
For test [2], the target named is porcine aminopeptidase N, expressed from a plasmid on BHK-21 or HEK 293T cells (porcine) (UniProt P15145). As to the kind of experiment: flow cytometry on cells.

“soluble TGEV spike protein (S1 subunit fused to the human IgG Fc portion) (from UniProt P07946 29-1447) (Fc fusion)”: in test [1], the percent of cells bound (ST cells, after neuraminidase) (% of the cells) is greater than 60 and the percent of cells bound (ST cells, without neuraminidase) (% of the cells) was found to be 50. The percent of cells bound (BHK-21 cells expressing APN, after neuraminidase) (% of the cells) in test [2] is greater than 60.

The record behind these values is article PMC3761233.
